Results from US20180296689A1 (published 2018).

Experiments:
[1] = molecular target: T1, TROP-2 (EGP-1), human, on tumor cell lines (human, UniProt P09758 27-323); assay: cell binding on TROP-2-positive PC-3 human prostate carcinoma cells, three separate occasions
T1 construct: whole, on cells; 36-kDa cell-surface glycoprotein; also called epithelial glycoprotein-1
T1 sequence (looked up): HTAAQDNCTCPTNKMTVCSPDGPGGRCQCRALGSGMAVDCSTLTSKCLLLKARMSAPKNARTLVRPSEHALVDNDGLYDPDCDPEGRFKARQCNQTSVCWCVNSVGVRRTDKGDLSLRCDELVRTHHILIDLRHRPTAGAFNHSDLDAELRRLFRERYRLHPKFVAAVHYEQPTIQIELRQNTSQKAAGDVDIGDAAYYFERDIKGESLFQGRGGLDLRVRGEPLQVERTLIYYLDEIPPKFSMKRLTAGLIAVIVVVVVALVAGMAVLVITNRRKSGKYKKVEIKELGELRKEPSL

[2] = molecular target: Human neonatal receptor (FcRn) (human, UniProt P55899 24-297, limits assumed); assay: SPR (BIACore), low density FcRn biosensor chip, three runs of five dilutions
Sequence of Human neonatal receptor (FcRn) (P55899 24-297 limits assumed): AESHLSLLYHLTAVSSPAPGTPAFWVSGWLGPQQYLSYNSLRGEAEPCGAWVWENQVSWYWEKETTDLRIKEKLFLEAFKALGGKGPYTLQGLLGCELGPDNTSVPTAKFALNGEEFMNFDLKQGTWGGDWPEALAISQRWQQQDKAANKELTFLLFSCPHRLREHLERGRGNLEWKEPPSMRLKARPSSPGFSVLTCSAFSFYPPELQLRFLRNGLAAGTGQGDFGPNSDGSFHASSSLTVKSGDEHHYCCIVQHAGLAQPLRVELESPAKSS

Kd [1]: 0.000564 µM | Kd [2]: 0.192 µM
B1: hRS7 IgG (humanized anti-TROP-2 IgG1 monoclonal antibody, unconjugated) (antibody)
chain 1: not shown
chain 2: DIQLTQSPSSLSASVGDRVSITCKASQDVSIAVAWYQQKPGKAPKLLIYSASYRYTGVPDRFSGSGSGTDFTLTISSLQPEDFAVYYCQQHYITPLTFGAGTKVEIKRTVAAPSVFIFPPSDEQLKSGTASVVCLLNNFYPREAKVQWKVDNALQSGNSQESVTEQDSKDSTYSLSSTLTLSKADYEKHKVYACEVTHQGLSSPVTKSFNRGEC
